US20240101687A1 (ABL BIO, published 2024)

Experiments:
[1] = target: T1, mouse IGF1R on bEND.3 brain endothelial cells (mouse, UniProt Q60751 31-1373); experiment: FACS on bEND.3 mouse brain endothelial cells; MFI of secondary Ab only 3.20
T1 construct: whole, on cells; also called IGF1R expressed on the surface of brain endothelial cells

[2] = target: T2, Tau protein aggregates (UniProt P10636-8 1-441, limits assumed); experiment: dot blot
T2 construct: aggregates prepared by Prof; Seung-jae Lee; also called tau-derived aggregates
T2 sequence (P10636 other isoform, or with tags, fused parts or gaps limits assumed): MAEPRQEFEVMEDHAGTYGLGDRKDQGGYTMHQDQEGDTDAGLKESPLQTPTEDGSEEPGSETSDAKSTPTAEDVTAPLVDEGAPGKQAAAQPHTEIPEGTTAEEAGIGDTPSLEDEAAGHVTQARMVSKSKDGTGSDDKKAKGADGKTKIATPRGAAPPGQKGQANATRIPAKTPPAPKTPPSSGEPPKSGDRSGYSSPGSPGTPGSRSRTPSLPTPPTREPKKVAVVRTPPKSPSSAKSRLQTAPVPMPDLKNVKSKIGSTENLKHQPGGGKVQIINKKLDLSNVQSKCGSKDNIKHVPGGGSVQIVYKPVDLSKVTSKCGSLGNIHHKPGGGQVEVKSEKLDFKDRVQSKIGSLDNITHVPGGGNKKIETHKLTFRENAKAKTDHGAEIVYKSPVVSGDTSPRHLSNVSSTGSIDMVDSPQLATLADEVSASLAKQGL

[3] = target: T3, human IGF1R extracellular domain, His-tagged (human, UniProt P08069 31-932); experiment: ELISA on coated IGF1R, antibody titrated up to 400 nM; C of the 4-P fit, D 2.68; curve at baseline up to about 3 nM, about 0.8 at 80 nM and 1.75 at 400 nM, no plateau in the data; the text says the single antibody did not bind
T3 construct: Bought (R&D Systems 391-GR or Sino Biological 10164-H08H); also called recombinant IGF1R; ECD of IGF1R

[4] = target: T4, human alpha-synuclein aggregates (fibrils) (human, UniProt P37840 1-140); experiment: SPR (BIAcore), antibody captured on Protein A chip, alpha-Syn fibril as analyte, 1:1 binding fit, 25 C
[5] = target: T4, human alpha-synuclein aggregates …; experiment: sandwich ELISA, antibody coated 0.04-400 nM, fibril aggregates 2000 ng/ml
Protocol: Specifically, each antibody was diluted at 1/10 ratio of concentrations 0.04 to 400 nM and was coated on a 96-well plate, and then each well was treated with synuclein fibril aggregates were treated at 2000 ng/ml. After washing with 1×PBS, streptavidin conjugated with HRP and secondary antibody conjugate with biotin was treated and then reacted with TMB as a substrate. The absorbance was measured.

[6] = target: T5, human beta-synuclein (human, UniProt Q16143 1-134, limits assumed); experiment: ELISA, human beta-synuclein coated at 100 ng/ml
T5 construct: bought
T5 sequence (Q16143 whole entry): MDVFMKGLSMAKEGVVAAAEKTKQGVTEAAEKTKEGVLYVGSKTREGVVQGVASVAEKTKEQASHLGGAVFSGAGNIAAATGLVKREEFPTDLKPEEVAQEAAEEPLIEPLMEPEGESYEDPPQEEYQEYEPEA
Description: (§1) For the positive control, RP-bound goat anti-rabbit was used as a detection antibody.

[7] = target: T3, human IGF1R extracellular domain, …; experiment: ELISA on coated IGF1R, antibody titrated up to 400 nM; C of the 4-P fit, D 0.945; curve at baseline up to 16 nM, about 0.2 at 80 nM and 0.75 at 400 nM, no plateau in the data; the text says the single antibody did not bind
[8] = target: T4, human alpha-synuclein aggregates …; experiment: ELISA, alpha-synuclein aggregates coated, antibody titrated up to 400 nM; C of the 4-P fit
Protocol: (§2) The alpha-synuclein aggregates were coated on a 96-well plate at a concentration of 1 ug/ml for 18 hours, and after washing, was treated with each antibody by diluting by 5 times from 400 nM. The bound antibodies were bound to anti-human Fc-HRP and then performed by color development with TMB solution, to measure the degree of binding of the antibody.

[9] = target: T4, human alpha-synuclein aggregates …; experiment: BIAcore as in Example 4-3, α-syn aggregates
Protocol: (§3) The running buffer, analyte dilution, and the sample dilution buffer were HBS-EP. […] For the capture, the monomer was for RU of 800 (theoretical), and a fibril was for RU of 100 (theoretical). The capture phase was performed at contact time of 60 seconds, a flow rate of 30 μl/min, and a stabilization period of 180 seconds. The association phase was performed at the association time of 120 seconds and the flow rate was 30 μl/min. The dissociation phase was performed at the dissociation time of 360 seconds and the flow rate of 30 l/min. The regeneration phase was performed twice time at the regeneration time of 240 seconds (primary) and 60 seconds (secondary) and a flow rate of 30 μl/min. The fitting was carried out suing 1:1 binding model, and the evaluation software was BIACore T200 Evaluation software (GE healthcare).

[10] = target: T6, amyloid beta1-42 aggregates (UniProt P05067 672-713); experiment: dot blot, monomer and fibril of each protein spotted in rising amounts, antibody as probe
T6 construct: domain: amyloid beta1-42; aggregates prepared by Prof; Seung-jae Lee; also called amyloid beta1-42-derived aggregates
Protocol: (§4) The specific binding ability of the antibodies to the alpha-synuclein aggregate was analyzed by reacting with a blot.

[11] = target: T7, Aβ42 (Monomer) (human, UniProt P05067); experiment: as above
T7 construct: recombinant, monomer (not aggregated); m20 is the aggregated form; also called amyloid beta1-42 monomer
Protocol: as §4

[12] = target: T4, human alpha-synuclein aggregates …; experiment: SPR (BIAcore), antibody captured on Protein A chip, alpha-synuclein fibril (sample aSyn180330) as analyte, 1:1 binding fit, 25 C
Protocol: as §3

[13] = target: T4, human alpha-synuclein aggregates …; experiment: ELISA, alpha-synuclein aggregates coated at 1 ug/ml, antibody titrated 5-fold from 400 nM, anti-human Fc-HRP; C of the 4-P fit
Protocol: as §2

[14] = target: T1, mouse IGF1R on bEND.3 brain endothelial …; experiment: FACS on bEND.3 mouse brain endothelial cells
[15] = target: T8, human gamma-synuclein (human, UniProt O76070 1-127, limits assumed); experiment: ELISA, human gamma-synuclein coated at 100 ng/ml
T8 construct: bought
T8 sequence (O76070 whole entry): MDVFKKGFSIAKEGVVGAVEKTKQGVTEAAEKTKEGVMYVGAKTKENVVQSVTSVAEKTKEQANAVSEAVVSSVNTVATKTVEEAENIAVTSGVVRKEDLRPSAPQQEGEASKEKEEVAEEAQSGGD
Description: as §1

[16] = target: T3, human IGF1R extracellular domain, …; experiment: ELISA, IGF1R coated, anti-human Fab-HRP
Protocol: To this end, firstly, human, monkey, mouse and rat IGF1R antigens were diluted to 1 ug/ml, added to each well 100 ul, and reacted at 4° C. for 15 hours to be coated on the bottom of the plate. After removing the supernatant, 200 ul of PBS buffer containing 3% BSA was treated in each well to block non-specific binding. The anti-IGF1R antibodies were diluted by 5 times in PBSB (BSA 3% in PBS) at a maximum concentration of 400 nM, treated in each well, and reacted at 37° C. for 1 hour. Then, after washing with PBS buffer 5 times, the anti-human Fab HRP recognizing the Fab portion of the bound antibody was diluted 1:20000 was treated at 100 ul of each well, and reacted at 37° C. for 1 hour. The product was washed 5 times with PBS buffer and the color development was performed with TMB (Tetramethylbenzidine, Sigma, T0440) according to the manufacturer's method. […] When many samples are used in the ELISA analysis, the plates were divided into two.

[17] = target: T3, human IGF1R extracellular domain, …; experiment: SPR (Biacore), human IGF1R ECD-His captured by anti-His antibody on CM4 chip, 1564-IgG as analyte, bivalent analyte fit, 25 C; lower panel
Protocol: (§5) The anti-his antibody against the His tag bound to the human IGF1R ECD as an antigen was diluted to 20 μg/ml in acetate pH4.0 buffer, and then immobilized in the reference/analytic channel of the CM4 chip to 10,000 RU as a target RU according to the amine coupling method. During capture, PBS was used as a running buffer, and the flow rate was maintained at 30 μL/min. During association/dissociation, the flow rate was 40 μL/min, and PBS was used as the running buffer. The association/dissociation was 5 minutes and 20 minutes, respectively.

[18] = target: T3, human IGF1R extracellular domain, …; experiment: SPR (Biacore), human IGF1R ECD-His captured by anti-His antibody on CM4 chip, 1564-IgG as analyte, bivalent analyte fit, 25 C; upper panel
Protocol: as §5

[19] = target: T3, human IGF1R extracellular domain, …; experiment: SPR (Biacore T200), His-tagged human IGF1R ECD captured by anti-His antibody on CM4 chip, bivalent model; 1564 IgG
Protocol: as §5

T1 sequence (Q60751 31-1373): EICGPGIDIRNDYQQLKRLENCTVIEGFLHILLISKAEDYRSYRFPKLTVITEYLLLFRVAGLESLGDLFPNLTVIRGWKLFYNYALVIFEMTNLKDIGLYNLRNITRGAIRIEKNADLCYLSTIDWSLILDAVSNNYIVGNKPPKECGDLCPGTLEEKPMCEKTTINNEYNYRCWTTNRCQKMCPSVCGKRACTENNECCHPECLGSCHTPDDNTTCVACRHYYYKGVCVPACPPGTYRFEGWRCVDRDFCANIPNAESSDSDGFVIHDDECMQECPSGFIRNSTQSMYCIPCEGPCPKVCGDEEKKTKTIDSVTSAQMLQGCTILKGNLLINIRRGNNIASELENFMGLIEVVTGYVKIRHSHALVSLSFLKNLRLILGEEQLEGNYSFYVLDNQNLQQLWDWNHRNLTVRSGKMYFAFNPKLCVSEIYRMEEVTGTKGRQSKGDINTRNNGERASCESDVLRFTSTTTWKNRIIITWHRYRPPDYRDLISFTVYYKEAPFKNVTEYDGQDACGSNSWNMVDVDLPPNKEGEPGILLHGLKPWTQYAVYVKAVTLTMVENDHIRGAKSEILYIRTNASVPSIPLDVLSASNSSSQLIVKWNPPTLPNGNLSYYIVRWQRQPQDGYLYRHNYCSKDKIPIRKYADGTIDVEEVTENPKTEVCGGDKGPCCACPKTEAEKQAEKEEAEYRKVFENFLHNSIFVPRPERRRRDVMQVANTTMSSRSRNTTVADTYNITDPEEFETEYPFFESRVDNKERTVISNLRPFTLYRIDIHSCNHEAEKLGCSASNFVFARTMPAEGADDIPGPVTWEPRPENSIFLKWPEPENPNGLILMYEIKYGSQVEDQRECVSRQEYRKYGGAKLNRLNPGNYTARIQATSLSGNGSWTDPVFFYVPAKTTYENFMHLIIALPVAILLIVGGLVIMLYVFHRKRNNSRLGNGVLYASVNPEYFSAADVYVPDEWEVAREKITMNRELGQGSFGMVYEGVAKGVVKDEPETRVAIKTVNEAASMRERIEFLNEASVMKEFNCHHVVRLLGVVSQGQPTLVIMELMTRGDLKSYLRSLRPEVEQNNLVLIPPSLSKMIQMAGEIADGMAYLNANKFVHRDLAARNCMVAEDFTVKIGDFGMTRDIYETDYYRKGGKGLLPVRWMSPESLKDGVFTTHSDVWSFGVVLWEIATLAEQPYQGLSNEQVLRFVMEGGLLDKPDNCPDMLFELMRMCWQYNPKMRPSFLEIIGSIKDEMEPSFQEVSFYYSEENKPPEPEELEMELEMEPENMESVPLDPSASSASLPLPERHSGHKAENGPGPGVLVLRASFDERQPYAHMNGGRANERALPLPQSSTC

B1: chimeric 11F11 antibody (antibody, V domains shown)
VH: EVQLQESGGGLVQPGGSLRLSCATSGFTFSDFYMEWVRQPPGKRLEWIAASRNKANDYTTEYSASVKGRFIVSRDTSQSILYLQMNALRAEDTAIYYCARDAHGKPFAYWGQGTLVTVSA
VL: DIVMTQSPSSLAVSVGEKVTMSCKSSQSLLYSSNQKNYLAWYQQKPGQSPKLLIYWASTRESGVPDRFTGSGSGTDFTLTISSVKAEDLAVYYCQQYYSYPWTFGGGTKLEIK
notes: also called Ch11F11; ch11F11
**Q.** Which results are given for B1?
**A.** MFI [1]: 3.26; binding result [2]: no binding; EC50 [3]: 201 nM; koff [4]: 8.88e-05 s⁻¹; kon [4]: 193000 M⁻¹ s⁻¹; EC50 [5]: 12.5 nM; binding result [6]: no binding; EC50 [7]: 196 nM; EC50 [8]: 1.27 nM; Kd [9]: 0.0247 nM; binding result [10]: no binding; binding result [11]: no binding; koff [12]: 0.000563 s⁻¹; kon [12]: 609000 M⁻¹ s⁻¹; EC50 [13]: 33.8 nM; binding result [14]: no binding; binding result [15]: no binding

B2: 1564 IgG (antibody, V domains shown)
VH: EVQLLESGGGLVQPGGSLRLSCAASGFTFSSYDMSWVRQAPGKGLEWVSAISYDNGNTYYADSVKGRFTISRDNSKNTLYLQMNSLRAEDTAVYYCAKGVLTTLMNWFDYWGQGTLVTVSS
VL: QSVLTQPPSASGTPGQRVTISCTGSSSNIGSNDVSWYQQLPGTAPKLLIYANSNRPSGVSDRFSGSKSGTSASLAISGLRSEDEADYYCGAWDDSLNGYVFGGGTKLTVLR
**Q.** What does the source list for B2?
**A.** MFI [1]: 7.55; EC50 [16]: 0.0823 nM; koff [17]: 2.53e-06 s⁻¹; koff [18]: 2.41e-06 s⁻¹; kon [18]: 902 M⁻¹ s⁻¹; Kd [19]: 2.53 nM
